# Legend:
# Assay in all cases: two-hybrid library CCmax;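 also: natural log of median RNA to DNA barcode read ratio; higher means stronger binding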
# [1] = target: T1, 4H454-AA; details: mean of both orientations
# T1 chain: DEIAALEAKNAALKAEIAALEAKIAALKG
# [2] = target: T2, 4H2277-AA; details: mean of both orientations
# T2 chain: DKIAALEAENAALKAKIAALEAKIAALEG
# [3] = target: T3, 4H3844-AA
# T3 chain: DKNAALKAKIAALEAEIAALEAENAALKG
# [4] = target: T4, 4H794-AA; details: mean of both orientations
# T4 chain: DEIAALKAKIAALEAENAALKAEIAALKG
# [5] = target: T5, 4H566-AA; details: mean of both orientations
# T5 chain: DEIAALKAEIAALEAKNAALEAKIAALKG
# [6] = target: T6, 4H1401-AA; details: mean of both orientations
# T6 chain: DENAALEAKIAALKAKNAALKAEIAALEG
# [7] = target: T7, 4H2883-AA; details: mean of both orientations
# T7 chain: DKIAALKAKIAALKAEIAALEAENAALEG
# [8] = target: T8, 4H3343-AA; details: mean of both orientations
# T8 chain: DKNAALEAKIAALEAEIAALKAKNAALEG
# [9] = target: T9, 4H48-AA; details: mean of both orientations
# T9 chain: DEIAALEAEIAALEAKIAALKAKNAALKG
# [10] = target: T10, 4H2505-AA; details: mean of both orientations
# T10 chain: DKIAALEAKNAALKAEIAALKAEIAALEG
# [11] = target: T11, 4H717-AA; details: mean of both orientations
# T11 chain: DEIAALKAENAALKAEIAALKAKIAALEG
# [12] = target: T12, 4H605-AA; details: mean of both orientations
# T12 chain: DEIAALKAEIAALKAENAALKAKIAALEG
# [13] = target: T13, 4H3921-AA; details: mean of both orientations
# T13 chain: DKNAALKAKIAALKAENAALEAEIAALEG
# [14] = target: T14, 4H2729-AA; details: mean of both orientations
# T14 chain: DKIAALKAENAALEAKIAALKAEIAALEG
# [15] = target: T15, 4H3606-AA; details: mean of both orientations
# T15 chain: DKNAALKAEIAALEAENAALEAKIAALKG
# [16] = target: T16, 4H1352-AA
# T16 chain: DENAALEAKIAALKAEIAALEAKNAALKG
# [17] = target: T17, Q7-AA; details: mean of both orientations
# T17 chain: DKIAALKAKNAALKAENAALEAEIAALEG
# [18] = target: T18, 4H1552-AA; details: mean of both orientations
# T18 chain: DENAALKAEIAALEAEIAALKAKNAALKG
# [19] = target: T19, Q3-AA; details: mean of both orientations
# T19 chain: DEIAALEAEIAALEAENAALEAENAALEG
# [20] = target: T20, 4H2354-AA; details: mean of both orientations
# T20 chain: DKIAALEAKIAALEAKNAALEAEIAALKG
# [21] = target: T21, 4H993-AA; details: mean of both orientations
# T21 chain: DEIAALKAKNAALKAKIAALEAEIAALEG
# [22] = target: T22, 4H317-AA; details: mean of both orientations
# T22 chain: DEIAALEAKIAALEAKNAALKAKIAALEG
# [23] = target: T23, 4H2165-AA; details: mean of both orientations
# T23 chain: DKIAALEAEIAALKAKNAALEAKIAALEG
# [24] = target: T24, Q8-AA; details: mean of both orientations
# T24 chain: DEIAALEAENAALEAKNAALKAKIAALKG
# [25] = target: T25, 4H2466-AA; details: mean of both orientations
# T25 chain: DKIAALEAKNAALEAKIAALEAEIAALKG
# [26] = target: T26, 4H1636-AA; details: mean of both orientations
# T26 chain: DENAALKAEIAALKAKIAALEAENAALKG
# [27] = target: T27, 4H3427-AA; details: mean of both orientations
# T27 chain: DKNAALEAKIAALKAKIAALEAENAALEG
# [28] = target: T28, 4H1513-AA; details: mean of both orientations
# T28 chain: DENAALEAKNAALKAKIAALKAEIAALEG
# [29] = target: T29, 4H2837-AA; details: mean of both orientations
# T29 chain: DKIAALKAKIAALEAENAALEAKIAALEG
# [30] = target: T30, 4H2944-AA; details: mean of both orientations
# T30 chain: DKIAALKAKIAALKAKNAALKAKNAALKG
# [31] = target: T31, 4H2642-AA; details: mean of both orientations
# T31 chain: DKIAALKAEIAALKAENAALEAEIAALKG
# [32] = target: T32, 4H906-AA; details: mean of both orientations
# T32 chain: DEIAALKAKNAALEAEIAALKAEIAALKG
# [33] = target: T33, 4H3627-AA; details: mean of both orientations
# T33 chain: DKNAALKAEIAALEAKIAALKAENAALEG
# [34] = target: T34, 4H2575-AA; details: mean of both orientations
# T34 chain: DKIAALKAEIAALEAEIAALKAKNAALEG
# [35] = target: T35, 4H335-AA; details: mean of both orientations
# T35 chain: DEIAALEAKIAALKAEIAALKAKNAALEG
# [36] = target: T36, 4H342-AA; details: mean of both orientations
# T36 chain: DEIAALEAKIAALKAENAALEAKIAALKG
# [37] = target: T37, 4H234-AA; details: mean of both orientations
# T37 chain: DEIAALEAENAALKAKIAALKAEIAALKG
# [38] = target: T38, 4H881-AA; details: mean of both orientations
# T38 chain: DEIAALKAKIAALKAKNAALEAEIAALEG
# [39] = target: T39, 4H3718-AA; details: mean of both orientations
# T39 chain: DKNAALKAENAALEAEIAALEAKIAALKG
# [40] = target: T40, 4H429-AA; details: mean of both orientations
# T40 chain: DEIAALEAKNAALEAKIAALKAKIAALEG
# [41] = target: T41, 4H2393-AA; details: mean of both orientations
# T41 chain: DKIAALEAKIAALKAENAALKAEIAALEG
# [42] = target: T42, 4H3112-AA; details: mean of both orientations
# T42 chain: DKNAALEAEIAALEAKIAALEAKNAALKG
# [43] = target: T43, 4H678-AA
# T43 chain: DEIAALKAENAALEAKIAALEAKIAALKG
# [44] = target: T44, 4H2754-AA; details: mean of both orientations
# T44 chain: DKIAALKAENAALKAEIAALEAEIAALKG
# [45] = target: T45, 4H2078-AA; details: mean of both orientations
# T45 chain: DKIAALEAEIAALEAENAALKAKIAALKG
# [46] = target: T46, 4H3655-AA; details: mean of both orientations
# T46 chain: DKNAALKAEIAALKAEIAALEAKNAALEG
# [47] = target: T47, 4H780-AA; details: mean of both orientations
# T47 chain: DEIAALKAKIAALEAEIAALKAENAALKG
# [48] = target: T48, 4H2190-AA; details: mean of both orientations
# T48 chain: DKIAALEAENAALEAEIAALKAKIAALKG
# [49] = target: T49, 4H2617-AA; details: mean of both orientations
# T49 chain: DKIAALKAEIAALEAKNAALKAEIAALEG
# [50] = target: T50, 4H2151-AA; details: mean of both orientations
# T50 chain: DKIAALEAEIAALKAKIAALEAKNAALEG
# [51] = target: T51, 4H2949-AA; details: mean of both orientations
# T51 chain: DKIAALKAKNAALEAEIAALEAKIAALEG
# [52] = target: T52, 4H1867-AA; details: mean of both orientations
# T52 chain: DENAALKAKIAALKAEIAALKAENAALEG
binder,measurement,setting,value
DENAALEAKIAALKAEIAALEAKNAALKG [4H1352-AA],interaction score,[1],1.39
same,interaction score,[2],-1.27
same,interaction score,[3],1.93
same,interaction score,[4],-1.64
same,interaction score,[5],-1.51
same,interaction score,[6],-1.64
same,interaction score,[7],0.183
same,interaction score,[8],-0.188
same,interaction score,[9],-0.096
same,interaction score,[10],-0.788
same,interaction score,[11],-1.46
same,interaction score,[12],-1.5
same,interaction score,[13],-1.28
same,interaction score,[14],0.0997
same,interaction score,[15],-0.743
same,interaction score,[16],1.38
same,interaction score,[17],-1.38
same,interaction score,[18],1.47
same,interaction score,[19],-0.583
same,interaction score,[20],-1.74
same,interaction score,[21],-0.427
same,interaction score,[22],-0.919
same,interaction score,[23],-1.51
same,interaction score,[24],-1.22
same,interaction score,[25],-1.34
same,interaction score,[26],-1.13
same,interaction score,[27],0.842
same,interaction score,[28],-0.469
same,interaction score,[29],-0.514
same,interaction score,[30],-0.752
same,interaction score,[31],-1.13
same,interaction score,[32],-1.39
same,interaction score,[33],2.33
same,interaction score,[34],1.45
same,interaction score,[35],0.334
same,interaction score,[36],1.49
same,interaction score,[37],-1.3
same,interaction score,[38],-0.885
same,interaction score,[39],0.714
same,interaction score,[40],-0.813
same,interaction score,[41],-1.01
same,interaction score,[42],1.11
same,interaction score,[43],-0.653
same,interaction score,[44],-0.982
same,interaction score,[45],-1.18
same,interaction score,[46],0.863
same,interaction score,[47],-1.6
same,interaction score,[48],-1.16
same,interaction score,[49],0.197
same,interaction score,[50],-0.65
same,interaction score,[51],-0.999
same,interaction score,[52],0.645

# Source: paper PMC10397247
